Experimental data as given in patent US20210139581A1 (Alector, published 2021).
Read-outs that look alike come from different tables or passages of the source.

Assays:
[1] = molecular target: T1, human CD33 on primary human monocyte-derived dendritic cells (human, UniProt P20138 18-364); test: cell-based or functional assay
human CD33 [2] = molecular target: T2, human CD33 (human, UniProt P20138 18-259, limits assumed); test: BLI (ForteBio), Fab 100 nM on immobilized CD33
T2 construct: Human CD33 immobilized on the BLI sensor tip or the BIAcore C1 chip; also called Siglec-3
T2 sequence (P20138 18-259 limits assumed): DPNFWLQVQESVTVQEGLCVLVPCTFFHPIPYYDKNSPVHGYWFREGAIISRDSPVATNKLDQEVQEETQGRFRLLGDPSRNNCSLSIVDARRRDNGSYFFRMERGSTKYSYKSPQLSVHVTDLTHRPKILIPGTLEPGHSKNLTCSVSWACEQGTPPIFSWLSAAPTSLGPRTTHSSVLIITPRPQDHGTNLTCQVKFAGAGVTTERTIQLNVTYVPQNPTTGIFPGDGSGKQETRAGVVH
Experimental: (§1) The affinities (KD) of the humanized antibodies for human CD33 were measured for each antibody by BioLayer Interferometry in a ForteBio assay according to standard techniques (Estep et al. (2013) MAbs 5(2): 270-8). […] The assay was carried out at room temperature.
The affinities of AB-H14 and its affinity-matured variants (Table 15) and AB-H63 and its affinity-matured variants (Table 16), for human CD33 were measured by Fortebio assay according to the method described in Example 1 above.

human CD33 [3] = molecular target: T2, human CD33; test: BLI (ForteBio), Fab 100 nM on immobilized CD33; remark: listed apart in the source
Experimental: as §1
The affinity parameters of two of the antibodies, 64.1.2 and 64.1.8, were measured in a separate experiment by BIAcore, where they were directly compared to the parental antibody, AB-64.1, the parental humanized antibody, AB-H64, and the Chimeric Ab.

[4] = molecular target: T1, human CD33 on primary human …; test: cell-based or functional assay; remark: listed apart in the source
[5] = molecular target: T1, human CD33 on primary human …; test: cell-based or functional assay; remark: listed apart in the source
[6] = molecular target: T1, human CD33 on primary human …; test: cell-based or functional assay; remark: listed apart in the source
human CD33 [7] = molecular target: T2, human CD33; test: SPR (BIAcore), Fab over CD33 on C1 chip
Experimental: The affinity parameters for 10 of the 88 humanized antibodies (AB-H1, AB-H3, AB-H6, AB-H11, AB-H22, AB-H24, AB-H26, AB-H63, AB-H64, and AB-H71) were measured in a separate experiment by a more sensitive technique, surface plasmon resonance (BIAcore), and compared to Chimeric Ab and Chimeric Ab #2. BIAcore measurements were performed as follows: human CD33 was immobilized on the surface of a C1 chip, and Fabs were injected for 300 s to monitor association, followed by a 900 s flow in running buffer to monitor dissociation. The Fabs were measured at 5 concentrations: a high concentration of 27 nM and 3-fold serial dilutions.

T1 sequence (P20138 18-364): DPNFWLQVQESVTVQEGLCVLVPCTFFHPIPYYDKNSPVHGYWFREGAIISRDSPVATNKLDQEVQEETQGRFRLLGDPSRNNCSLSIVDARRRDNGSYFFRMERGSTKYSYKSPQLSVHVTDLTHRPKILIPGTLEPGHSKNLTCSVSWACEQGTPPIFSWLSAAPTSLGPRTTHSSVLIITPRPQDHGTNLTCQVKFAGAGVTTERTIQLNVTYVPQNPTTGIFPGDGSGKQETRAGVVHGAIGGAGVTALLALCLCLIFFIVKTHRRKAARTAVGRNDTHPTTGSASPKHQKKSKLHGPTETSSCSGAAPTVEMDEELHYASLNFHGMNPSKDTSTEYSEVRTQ

B1: AB-14.8 (antibody, V domains shown)
VH: QVQLVQSGAEVKKPGASVKVSCKASGYTFTDYNYHWVRQAPGQGLEWIGFIYPSNGITGYAQKFQGRVTMTVDTSTSTVYMELSSLRSEDTAVYYCARSDVDYFDYWGQGTLVTVSS
VL: DIQMTQSPSSLPASVGDRVTITCRASQSVGTSTYSYMHWYQQKPGKAPKLLIKYASNLGSGVPSRFSGSGSGTDFTLTISSLQPEDFATYYCQHSWEIPLTFGQGTKLEIK
[1]
  Maximal Downregulation (% CD33 remaining): 21.2%
  Receptor downregulation (EC50): 0.0234 nM
Human CD33 [2]
  Fold affinity improvement over parental Ab (AB-H14): 13.6 fold
  Kd: 0.214 nM
  koff: 0.0002 s⁻¹
  kon: 935000 M⁻¹ s⁻¹

B2: AB-64.1.4 (antibody, V domains shown)
VH: QVQLVQSGAEVKKPGASVKISCKASGYTFTDYNLHWVRQAPGQGLEWIGFIYPSNGITGYAQKFQGRATLTVDTSTSTAYMELSSLRSEDTAVYYCARSDVDYFDYWGQGTLLTVSS
VL: DIVLTQSPDSLAVSLGERATINCRASQSVSTSTYSYMHWYQQKPGQPPKLLIKYASNLESGVPDRFSGSGSGTDFTLTISSLQAEDVAVYYCQHSWEIPLTFGQGTKLEIK
notes: Variant of AB-64.1
Human CD33 [3]
  Kd: 0.639 nM
[4]
  Receptor downregulation (% remaining at 0.16 µg/mL antibody): 38%

B3: AB-64.1.1 (antibody, V domains shown)
VH: QVQLVQSGAEVKKPGASVKISCKASGYTFTDYNLHWVRQAPGQGLEWIGFIYPSNQITGYAQKFQGRATLTVDNSTSTAYMELSSLRSEDTAVYYCARSDVDYFDYWGQGTLLTVSS
VL: DIVLTQSPDSLAVSLGERATINCRASQSVSTSTYSYMHWYQQKPGQPPKLLIKYASNLESGVPDRFSGSGSGTDFTLTISSLQAEDVAVYYCQHSWEIPLTFGQGTKLEIK
notes: Variant of AB-64.1
Human CD33 [3]
  Kd: 0.429 nM
[4]
  Receptor downregulation (% remaining at 0.16 µg/mL antibody): 37%

B4: AB-14.9 (antibody, V domains shown)
VH: QVQLVQSGAEVKKPGASVKVSCKASGYTFTDYNYHWVRQAPGQGLEWIGFIYPSNGITGYAQKFQGRVTMTVDTSTSTVYMELSSLRSEDTAVYYCARSDVDYFDYWGQGTLVTVSS
VL: GIQMTQSPSSLSASVGDRVTITCRASQSVGTSTYSYMHWYQQKPGKAPKLLIKYAVNLESGVPSRFSGSGSGTDFTLTISSLQPEDFATYYCQHSWEIPLTFGQGTKLEIK
[1]
  Maximal Downregulation (% CD33 remaining): 26.1%
  Receptor downregulation (EC50): 0.0399 nM
Human CD33 [2]
  Fold affinity improvement over parental Ab (AB-H14): 13.4 fold
  Kd: 0.217 nM
  koff: 0.0002 s⁻¹
  kon: 921000 M⁻¹ s⁻¹

B5: AB-64.1.3 (antibody, V domains shown)
VH: QVQLVQSGAEVKKPGASVKISCKASGYTFTDYNLHWVRQAPGQGLEWIGFIYPSNVITGYAQKFQGRATLTVDNSTSTAYMELSSLRSEDTAVYYCARSDVDYFDYWGQGTLLTVSS
VL: DIVLTQSPDSLAVSLGERATINCRASQSVSTSTYSYMHWYQQKPGQPPKLLIKYASNLESGVPDRFSGSGSGTDFTLTISSLQAEDVAVYYCQHSWEIPLTFGQGTKLEIK
notes: Variant of AB-64.1
Human CD33 [3]
  Kd: 0.647 nM
[4]
  Receptor downregulation (% remaining at 0.16 µg/mL antibody): 38.5%

B6: AB-64.1.9 (antibody, V domains shown)
VH: QVQLVQSGAEVKKPGASVKISCKASGYTFTDYNLHWVRQAPGQGLEWIGFIYPSNQITGYAQKFQGRATLTVDNPTSTAYMELSSLRSEDTAVYYCARSDVDYFDYWGQGTLLTVSS
VL: DIVLTQSPDSLAVSLGERATINCRASQSVSTSTYSYMHWYQQKPGQPPKLLIKYASNLESGVPDRFSGSGSGTDFTLTISSLQAEDVAVYYCQHSWEIPLTFGQGTKLEIK
notes: Variant of AB-64.1
Human CD33 [3]
  Kd: 1.06 nM
[4]
  Receptor downregulation (% remaining at 0.16 µg/mL antibody): 37.4%

B7: AB-64.1.11 (antibody, V domains shown)
VH: QVQLVQSGAEVKKPGASVKISCKASGYTFTDYNLHWVRQAPGQGLEWIGFIYPSNRITGYAQKFQGRATLTVDQSTSTAYMELSSLRSEDTAVYYCARSDVDYFDYWGQGTLLTVSS
VL: DIVLTQSPDSLAVSLGERATINCRASQSVSTSTYSYMHWYQQKPGQPPKLLIKYASNLESGVPDRFSGSGSGTDFTLTISSLQAEDVAVYYCQHSWEIPLTFGQGTKLEIK
notes: Variant of AB-64.1
Human CD33 [3]
  Kd: 1.15 nM
[4]
  Receptor downregulation (% remaining at 0.16 µg/mL antibody): 38.6%

B8: AB-64.1.7 (antibody, V domains shown)
VH: QVQLVQSGAEVKKPGASVKISCKASGYTFTDYNLHWVRQAPGQGLEWIGFIYPSNGITGYAQKFQGRATLTVDNPTSTAYMELSSLRSEDTAVYYCARSDVDYFDYWGQGTLLTVSS
VL: DIVLTQSPDSLAVSLGERATINCRASQSVSTSTYSYMHWYQQKPGQPPKLLIKYASNLESGVPDRFSGSGSGTDFTLTISSLQAEDVAVYYCQHSWEIPLTFGQGTKLEIK
notes: Variant of AB-64.1
Human CD33 [3]
  Kd: 0.391 nM
[4]
  Receptor downregulation (% remaining at 0.16 µg/mL antibody): 35.9%

B9: AB-64.1.5 (antibody, V domains shown)
VH: QVQLVQSGAEVKKPGASVKISCKASGYTFTDYNLHWVRQAPGQGLEWIGFIYPSNGITGYAQKFQGRATLTVDQSTSTAYMELSSLRSEDTAVYYCARSDVDYFDYWGQGTLLTVSS
VL: DIVLTQSPDSLAVSLGERATINCRASQSVSTSTYSYMHWYQQKPGQPPKLLIKYASNLESGVPDRFSGSGSGTDFTLTISSLQAEDVAVYYCQHSWEIPLTFGQGTKLEIK
notes: Variant of AB-64.1
Human CD33 [3]
  Kd: 0.697 nM
[4]
  Receptor downregulation (% remaining at 0.16 µg/mL antibody): 37.3%

B10: AB-64.1.6 (antibody, V domains shown)
VH: QVQLVQSGAEVKKPGASVKISCKASGYTFTDYNLHWVRQAPGQGLEWIGFIYPSNGITGYAQKFQGRATLTVDNSASTAYMELSSLRSEDTAVYYCARSDVDYFDYWGQGTLLTVSS
VL: DIVLTQSPDSLAVSLGERATINCRASQSVSTSTYSYMHWYQQKPGQPPKLLIKYASNLESGVPDRFSGSGSGTDFTLTISSLQAEDVAVYYCQHSWEIPLTFGQGTKLEIK
notes: Variant of AB-64.1
Human CD33 [3]
  Kd: 0.836 nM
[4]
  Receptor downregulation (% remaining at 0.16 µg/mL antibody): 37%

B11: AB-14.11 (antibody, V domains shown)
VH: QVQLVQSGAEVKKPGASVKVSCKASGYTFTDYNYHWVRQAPGQGLEWIGFIYPSNGITGYAQKFQGRVTMTVDTSTSTVYMELSSLRSEDTAVYYCARSSVDYFDYWGQGTLVTVSS
VL: DIQMTQSPSSLSASVGDRVTITCRASQDVSTSTYSYMHWYQQKPGKAPKLLIKYVSNLESGVPSRFSGSGSGTDFTLTISSLQPEDFATYYCQHSWEIPLTFGQGTKLEIK
[1]
  Maximal Downregulation (% CD33 remaining): 27.5%
  Receptor downregulation (EC50): 0.047 nM
Human CD33 [2]
  Fold affinity improvement over parental Ab (AB-H14): 14.1 fold
  Kd: 0.205 nM
  koff: 0.0002 s⁻¹
  kon: 974000 M⁻¹ s⁻¹

B12: AB-64.1.10 (antibody, V domains shown)
VH: QVQLVQSGAEVKKPGASVKISCKASGYTFTDYNLHWVRQAPGQGLEWIGFIYPSNRITGYAQKFQGRATLTVDTSTSTAYMELSSLRSEDTAVYYCARSDVDYFDYWGQGTLLTVSS
VL: DIVLTQSPDSLAVSLGERATINCRASQSVSTSTYSYMHWYQQKPGQPPKLLIKYASNLESGVPDRFSGSGSGTDFTLTISSLQAEDVAVYYCQHSWEIPLTFGQGTKLEIK
notes: Variant of AB-64.1
Human CD33 [3]
  Kd: 1.45 nM
[4]
  Receptor downregulation (% remaining at 0.16 µg/mL antibody): 39.8%

B13: AB-14.10 (antibody, V domains shown)
VH: QVQLVQSGAEVKKPGASVKVSCKASGYTFTDYNYHWVRQAPGQGLEWIGFIYPSNGITGYAQKFQGRVTMTVDTSTSTVYMELSSLRSEDTAVYYCARSDVDYFDYWGQGTLVTVSS
VL: DIQMTQSPSSLSASVGDRVTITCRASQSVSASTYSYMHWYQQKPGKAPKLLIKYASNLESGVPSRFSGSGSGTDFTLTISSLQPEDLATYYCQHSWEIPLTFGQGTKLEIK
[1]
  Maximal Downregulation (% CD33 remaining): 20.9%
  Receptor downregulation (EC50): 0.0494 nM
Human CD33 [2]
  Fold affinity improvement over parental Ab (AB-H14): 13.2 fold
  Kd: 0.221 nM
  koff: 0.0002 s⁻¹
  kon: 906000 M⁻¹ s⁻¹

B14: Chimeric Ab #2 (antibody, V domains shown)
VH: EVQLQQSGPELVKPGASVKISCKASGYTFTDYNLHWVKLSHGKSLEWIGFIYPSNGITGYNQKFKNKATLTVDTSSSTAYMELRSLTSEDSAVYYCARSTVDYFDYWGQGTTLTVSS
VL: DIVLTQSPASLAVSLGQRATMSCRASQSVSTSTYSYMHWYQQKPGQPPKLLIKYASNLESGVPARFSGSGSGTDFTLNIHPVEEEDTATYYCQHSWEIPLTFGAGTKLELK
notes: Chimeric Ab with a VH-FR3 mutation that removes the predicted N-glycosylation site
[5]
  Maximal Downregulation (% CD33 remaining): 23.2%
  Receptor downregulation (EC50): 0.119 nM
[6]
  Maximal Downregulation (% CD33 remaining): 23.2%
  Receptor downregulation (EC50): 0.119 nM
Human CD33 [7]
  Fold Change to Chimeric Ab: 0.56 fold
  Kd: 2.89 nM
  koff: 0.00286 s⁻¹
  kon: 991000 M⁻¹ s⁻¹
